Entries after “also recorded” stand apart in the source; their conditions may differ.
Columns and labels:
[1] = tested on: MDCK cells; assay: Localization of GFP fusion proteins in polarized MDCK cells by confocal microscopy; assay type: cell-based, canine; conditions: GFP fusion protein, confluent MDCK cells on Transwell membranes
Description: The cMOAT-gfp and MRP1-gfp constructs supra (1 μg of DNA per transfection) were separately transfected into MDCK cells and L1210 cells using a UpofectAMINE transfection kit (Life Technologies, Inc.). Transfections of MDCK cells were carried out using Transwell plates (Costar, 24 mm×3 μm polycarbonate membrane) to enable cell polarization. Cells were imaged using a NikonTE300 inverted microscope linked to a Radiance 2000 Laser Scanning System for confocal microscopy and Lasersharp 2000 imaging software (Bio-Rad).
To conveniently detect the localization of the proteins under investigation, GFP fusion proteins were produced and their localization visualized using confocal microscopy to visualize the fluorescent product, as described supra. […]

[2] = tested on: L1210 cells; assay: 2,4-Dinitrophenyl glutathione (DNP-GS) transport from L1210 cells; assay type: cell-based, mouse; conditions: L1210 cells expressing the protein, compared with control L1210 cells; spectrophotometry
Source text: DNP-GS was generated in L1210 cells by exposure to 1-chloro-2,4-dinitrobenzene and its efflux determined as described previously (Olive et al., (1994) Biochim. Biophys. Acta 1224, 264-268).

[3] = tested on: L1210 cells; assay: Survival of L1210 cells in the presence of Busulfan; assay type: cell-based, mouse; conditions: versus non-transfected L1210 cells or L1210 cells expressing native cMOAT
Description: Accordingly, the ability of modified cMOAT polypeptides to confer resistance to Busulfan was determined in L1210 cells. In particular, the ΔcMOAT polypeptide having the amino acid sequence set forth in SEQ ID NO: 4, was expressed in L1210 cells as described in Example 1. The transfected cells were exposed to a range of concentrations of Busulfan. The survival of wild type L1210 cells, and transfected L1210 cells expressing either native cMOAT or ΔcMOAT, was determined in the presence of Busulfan. Survival was also assessed relative to the growth of cells that had not been exposed to Busulfan. Cell growth and survival were assayed using standard procedures (Denizot et al (1986), J. Immunol. Methods 89, 271-277).

[4] = tested on: L1210 cells; assay: [3H]paclitaxel transport from L1210 cells expressing modified MDR3; assay type: cell-based, mouse; conditions: L1210 cells stably expressing the polypeptide without GFP tag, compared to control L1210 cells
Description: The transport of [^3H]paclitaxel is determined from L1210 cells expressing the modified MDR3 polypeptide and compared to the efflux of [^3H]paclitaxel from control L1210 cells not ectopically expressing any MDR3 polypeptide.

[5] = tested on: L1210 cells; assay: 6-mercaptopurine transport (6-thio-IMP efflux) from L1210 cells expressing modified MRP4; assay type: cell-based, mouse; conditions: L1210 cells stably expressing the polypeptide without GFP tag, compared to control L1210 cells or L1210 cells expressing native MRP4
Description: Radiolabeled 6-mercaptopurine is added to L1210 cells expressing the modified MRP4 polypeptide and the efflux of 6-thio-IMP compared to the efflux of 6-thio-IMP from L1210 cells expressing native MRP4, or alternatively, the efflux of 6-thio-IMP from control L1210 cells not ectopically expressing any MRP4 polypeptide.

## F1545A: modified cMOAT polypeptide with Phe1545 mutated to alanine, tested as cMOAT-gfp fusion
[1]
  membrane localization in polarized MDCK cells: did not exhibit modified localization; also recorded: did not alter normal targeting; also recorded: same localization as the native protein

## cMOAT: native human canalicular multispecific organic anion transporter (MRP2) [reference compound]
[2]
  efflux of DNP-GS into the supernatant: little evidence for the transport of DNP-GS; also recorded: minimal; also recorded: same rate of efflux

## ΔcMOAT: modified human cMOAT polypeptide wherein the C-terminal T-K-F motif was deleted, without a GFP tag
[3]
  resistance to Busulfan conferred on L1210 cells: significantly enhanced resistance to Busulfan
[2]
  efflux of DNP-GS into the supernatant: significantly higher efflux; also recorded: transport 2,4-dinitrophenyl glutathione; also recorded: increased transport

## S1542A: modified cMOAT polypeptide with Ser1542 mutated to alanine, tested as cMOAT-gfp fusion
[1]
  membrane localization in polarized MDCK cells: fluorescence appears to be in sub-membrane vesicles

## modified MDR3 polypeptide: modified human MDR3 polypeptide lacking the T-K-F motif (terminal 4 amino acids deleted)
[4]
  efflux of [3H]paclitaxel: significantly higher efflux

## T1543A: modified cMOAT polypeptide with Thr1543 mutated to alanine, tested as cMOAT-gfp fusion
[1]
  membrane localization in polarized MDCK cells: both apical and basolateral targeting with an increase in protein accumulation in intracellular vesicles; also recorded: non-polarized distribution

B1: modified MRP4 polypeptide: modified human MRP4 polypeptide lacking the T-K-F motif (terminal 3 amino acids deleted) (protein, listed as Homo sapiens)
chain: MLPVYQEVKPNPLQDANLCSRVFFWWLNPLFKIGHKRRLEEDDMYSVLPEDRSQHLGEELQGFWDKEVLRAENDAQKPSLTRAIIKCYWKSYLVLGIFTLIEESAKVIQPIFLGKIINYFENYDPMDSVALNTAYAYATVLTFCTLILAILHHLYFYHVQCAGMRLRVAMCHMIYRKALRLSNMAMGKTTTGQIVNLLSNDVNKFDQVTVFLHFLWAGPLQAIAVTALLWMEIGISCLAGMAVLIILLPLQSCFGKLFSSLRSKTATFTDARIRTMNEVITGIRIIKMYAWEKSFSNLITNLRKKEISKILRSSCLRGMNLASFFSASKIIVFVTFTTYVLLGSVITASRVFVAVTLYGAVRLTVTLFFPSAIERVSEAIVSIRRIQTFLLLDEISQRNRQLPSDGKKMVHVQDFTAFWDKASETPTLQGLSFTVRPGELLAVVGPVGAGKSSLLSAVLGELAPSHGLVSVHGRIAYVSQQPWVFSGTLRSNILFGKKYEKERYEKVIKACALKKDLQLLEDGDLTVIGDRGTTLSGGQKARVNLARAVYQDADIYLLDDPLSAVDAEVSRHLFELCICQILHEKITILVTHQLQYLKAASQILILKDGKMVQKGTYTEFLKSGIDFGSLLKKDNEESEQPPVPGTPTLRNRTFSESSVWSQQSSRPSLKDGALESQDTENVPVTLSEENRSEGKVGFQAYKNYFRAGAHWIVFIFLILLNTAAQVAYVLQDWWLSYWANKQSMLNVTVNGGGNVTEKLDLNWYLGIYSGLTVATVLFGIARSLLVFYVLVNSSQTLHNKMFESILKAPVLFFDRNPIGRILNRFSKDIGHLDDLLPLTFLDFIQTLLQVVGVVSVAVAVIPWIAIPLVPLGIIFIFLRRYFLETSRDVKRLESTTRSPVFSHLSSSLQGLWTIRAYKAEERCQELFDAHQDLHSEAWFLFLTTSRWFAVRLDAICAMFVIIVAFGSLILAKTLDAGQVGLALSYALTLMGMFQWCVRQSAEVENMMISVERVIEYTDLEKEAPWEYQKRPPPAWPHEGVIIFDNVNFMYSPGGPLVLKHLTALIKSQEKVGIVGRTGAGKSSLISALFRLSEPEGKIWIDKILTTEIGLHDLRKKMSIIPQEPVLFTGTMRKNLDPFNEHTDEELWNALQEVQLKETIEDLPGKMDTELAESGSNFSVGQRQLVCLARAILRKNQILIIDEATANVDPRTDELIQKKIREKFAHCTVLTIAHRLNTIIDSDKIMVLDSGRLKEYDEPYVLLQNKESLFYKMVQQLGKAEAAALTETAKQVYFKRNYPHIGHTDHMVTNTSNGQPSTLTIFE
[5]
  efflux of 6-thio-IMP: significantly higher efflux

— US20040091964A1, “Modified proteins, isolated novel peptides,and uses thereof” (priority 2003, published 2004)
